{"source": "paper PMC12774641", "biological_target": "SpβL1 Namat (nicotinamide ADP-ribose transferase), untagged (SpβL1 phage)", "experiment": "mass photometry; Refeyn mass photometry; 50 nM Namat after gel filtration"}
{"substance": "SpβL1 Namat (nicotinamide ADP-ribose transferase), untagged (enzyme)", "values": [{"measurement": "stoichiometry N", "value": 2}]}
